This note sets out measurements from paper PMC7772773.

This experiment has as its target EGFP-RABL2B (UniProt Q9UNT1). The experiment can be described thus: co-immunoprecipitation (IP anti-EGFP, Western blot anti-Myc), IP/input band quantitation. Conditions: lysates from HEK293T cells; Input is 2.5% of lysate used for IP; parent: 100.

EGFP-RABL2B, sequence (Q9UNT1 whole entry): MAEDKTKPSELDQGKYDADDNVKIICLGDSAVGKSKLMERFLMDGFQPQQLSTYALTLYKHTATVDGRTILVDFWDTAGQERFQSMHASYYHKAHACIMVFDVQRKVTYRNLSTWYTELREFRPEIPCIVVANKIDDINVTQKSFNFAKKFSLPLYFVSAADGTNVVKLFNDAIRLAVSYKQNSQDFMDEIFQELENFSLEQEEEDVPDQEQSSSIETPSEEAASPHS

Turning to CD8α-(HTR6-IC3)-myc R216A; K217A; Q218A, the percent of parent turned out to be 29%.
